Results: the Human Domainome abundance scans (Beltran et al. 2025)
± gives the uncertainty stated by the source.

Assay: abundance fitness (aPCA) (normalised: wild type 0, dead -1); higher = more abundant; growth selection in yeast, the domain comes from the species named
Details: Saccharomyces cerevisiae (strain ATCC 204508 / S288c)

“E3 ubiquitin-protein ligase RSP5 F341Y, P39940” and “E3 ubiquitin-protein ligase RSP5 R364D, P39940” are within error of each other in abundance fitness: 0.048 ± 0.054 for the first, 0.126 ± 0.067 for the second.

“E3 ubiquitin-protein ligase RSP5 T358Y, P39940” and “E3 ubiquitin-protein ligase RSP5 W337D, P39940” are within error of each other in abundance fitness: -0.633 ± 0.12 for the first, -0.504 ± 0.074 for the second.

Going from “E3 ubiquitin-protein ligase RSP5 W337S, P39940” to “E3 ubiquitin-protein ligase RSP5 P334F, P39940”, the abundance fitness falls from -0.622 ± 0.052 to -0.889 ± 0.083.

“E3 ubiquitin-protein ligase RSP5 L330S, P39940” and “E3 ubiquitin-protein ligase RSP5 A347C, P39940” are within error of each other in abundance fitness: -0.055 ± 0.05 for the first, 0.08 ± 0.095 for the second.

“E3 ubiquitin-protein ligase RSP5 L330A, P39940” and “E3 ubiquitin-protein ligase RSP5 S328H, P39940” are within error of each other in abundance fitness: 0.005 ± 0.046 for the first, -0.014 ± 0.076 for the second.

First: E3 ubiquitin-protein ligase RSP5 D351K, P39940
Second: E3 ubiquitin-protein ligase RSP5 G331C, P39940
The abundance fitness of the first is lower: -0.748 ± 0.084 for the first, -0.095 ± 0.09 for the second.

First: E3 ubiquitin-protein ligase RSP5 V350G, P39940
Second: E3 ubiquitin-protein ligase RSP5 P334G, P39940
The abundance fitness of the first is lower: -0.891 ± 0.046 for the first, -0.629 ± 0.044 for the second.

Going from “E3 ubiquitin-protein ligase RSP5 Y348C, P39940” to “E3 ubiquitin-protein ligase RSP5 G331T, P39940”, the abundance fitness rises from -0.574 ± 0.09 to -0.09 ± 0.046.

Compared with “E3 ubiquitin-protein ligase RSP5 P362M, P39940”, “E3 ubiquitin-protein ligase RSP5 R340T, P39940” is higher in abundance fitness: -1.2 ± 0.35 for the first, -0.108 ± 0.062 for the second.

First: E3 ubiquitin-protein ligase RSP5 R346K, P39940
Second: E3 ubiquitin-protein ligase RSP5 T356R, P39940
The abundance fitness of the first is higher: 0.192 ± 0.064 for the first, -0.32 ± 0.042 for the second.

Going from “E3 ubiquitin-protein ligase RSP5 G331W, P39940” to “E3 ubiquitin-protein ligase RSP5 T354Q, P39940”, the abundance fitness rises from -0.329 ± 0.049 to -0.165 ± 0.056.

Compared with “E3 ubiquitin-protein ligase RSP5 P334K, P39940”, “E3 ubiquitin-protein ligase RSP5 T342G, P39940” is higher in abundance fitness: -0.86 ± 0.071 for the first, -0.255 ± 0.045 for the second.

“E3 ubiquitin-protein ligase RSP5 R355F, P39940” and “E3 ubiquitin-protein ligase RSP5 D361Q, P39940” are within error of each other in abundance fitness: -0.057 ± 0.2 for the first, -0.305 ± 0.086 for the second.

Compared with “E3 ubiquitin-protein ligase RSP5 R363S, P39940”, “E3 ubiquitin-protein ligase RSP5 Q366A, P39940” is higher in abundance fitness: -0.262 ± 0.049 for the first, 0.047 ± 0.13 for the second.

“E3 ubiquitin-protein ligase RSP5 Q366C, P39940” and “E3 ubiquitin-protein ligase RSP5 D361A, P39940” are within error of each other in abundance fitness: -0.572 ± 0.41 for the first, -0.269 ± 0.053 for the second.

Going from “E3 ubiquitin-protein ligase RSP5 T326L, P39940” to “E3 ubiquitin-protein ligase RSP5 W337Y, P39940”, the abundance fitness falls from -0.023 ± 0.048 to -0.366 ± 0.1.

Compared with “E3 ubiquitin-protein ligase RSP5 N353G, P39940”, “E3 ubiquitin-protein ligase RSP5 W359R, P39940” is lower in abundance fitness: -0.132 ± 0.043 for the first, -0.265 ± 0.067 for the second.

Compared with “E3 ubiquitin-protein ligase RSP5 R364L, P39940”, “E3 ubiquitin-protein ligase RSP5 N353R, P39940” is lower in abundance fitness: 0.074 ± 0.043 for the first, -0.177 ± 0.04 for the second.

Going from “E3 ubiquitin-protein ligase RSP5 E338C, P39940” to “E3 ubiquitin-protein ligase RSP5 F349K, P39940”, the abundance fitness falls from -0.476 ± 0.16 to -0.837 ± 0.13.

Compared with “E3 ubiquitin-protein ligase RSP5 Y348E, P39940”, “E3 ubiquitin-protein ligase RSP5 P334W, P39940” is lower in abundance fitness: -0.664 ± 0.062 for the first, -1.01 ± 0.071 for the second.

“E3 ubiquitin-protein ligase RSP5 G324W, P39940” and “E3 ubiquitin-protein ligase RSP5 R355D, P39940” are within error of each other in abundance fitness: -0.344 ± 0.086 for the first, -0.462 ± 0.088 for the second.

Compared with “E3 ubiquitin-protein ligase RSP5 G325D, P39940”, “E3 ubiquitin-protein ligase RSP5 V360D, P39940” is lower in abundance fitness: 0.051 ± 0.051 for the first, -0.098 ± 0.056 for the second.

Compared with “E3 ubiquitin-protein ligase RSP5 E344A, P39940”, “E3 ubiquitin-protein ligase RSP5 T342V, P39940” is lower in abundance fitness: -0.144 ± 0.045 for the first, -0.315 ± 0.047 for the second.

“E3 ubiquitin-protein ligase RSP5 R363C, P39940” and “E3 ubiquitin-protein ligase RSP5 L333I, P39940” are within error of each other in abundance fitness: -0.219 ± 0.068 for the first, -0.227 ± 0.067 for the second.

Compared with “E3 ubiquitin-protein ligase RSP5 D351W, P39940”, “E3 ubiquitin-protein ligase RSP5 R340H, P39940” is higher in abundance fitness: -1.28 ± 0.097 for the first, -0.206 ± 0.22 for the second.

First: E3 ubiquitin-protein ligase RSP5 L333V, P39940
Second: E3 ubiquitin-protein ligase RSP5 G325C, P39940
The abundance fitness of the first is lower: -0.447 ± 0.05 for the first, -0.008 ± 0.071 for the second.

Going from “E3 ubiquitin-protein ligase RSP5 T342N, P39940” to “E3 ubiquitin-protein ligase RSP5 R364T, P39940”, the abundance fitness rises from -0.225 ± 0.13 to 0.077 ± 0.057.

“E3 ubiquitin-protein ligase RSP5 E344G, P39940” and “E3 ubiquitin-protein ligase RSP5 E332C, P39940” are within error of each other in abundance fitness: -0.038 ± 0.045 for the first, -0.116 ± 0.08 for the second.

“E3 ubiquitin-protein ligase RSP5 G329L, P39940” and “E3 ubiquitin-protein ligase RSP5 E332S, P39940” are within error of each other in abundance fitness: -0.129 ± 0.047 for the first, -0.179 ± 0.053 for the second.

First: E3 ubiquitin-protein ligase RSP5 Y348G, P39940
Second: E3 ubiquitin-protein ligase RSP5 E332V, P39940
The abundance fitness of the first is lower: -0.796 ± 0.043 for the first, -0.07 ± 0.047 for the second.

Going from “E3 ubiquitin-protein ligase RSP5 H352M, P39940” to “E3 ubiquitin-protein ligase RSP5 G324L, P39940”, the abundance fitness falls from -0.104 ± 0.053 to -0.328 ± 0.13.

“E3 ubiquitin-protein ligase RSP5 E344R, P39940” and “E3 ubiquitin-protein ligase RSP5 T326G, P39940” are within error of each other in abundance fitness: -0.256 ± 0.047 for the first, -0.18 ± 0.048 for the second.

Compared with “E3 ubiquitin-protein ligase RSP5 V360T, P39940”, “E3 ubiquitin-protein ligase RSP5 T354F, P39940” is lower in abundance fitness: -0.095 ± 0.064 for the first, -0.374 ± 0.093 for the second.

“E3 ubiquitin-protein ligase RSP5 S335G, P39940” and “E3 ubiquitin-protein ligase RSP5 T326M, P39940” are within error of each other in abundance fitness: -0.108 ± 0.052 for the first, 0.008 ± 0.07 for the second.

Compared with “E3 ubiquitin-protein ligase RSP5 T354H, P39940”, “E3 ubiquitin-protein ligase RSP5 F349A, P39940” is lower in abundance fitness: 0.187 ± 0.14 for the first, -0.708 ± 0.047 for the second.

First: E3 ubiquitin-protein ligase RSP5 E344Q, P39940
Second: E3 ubiquitin-protein ligase RSP5 R364S, P39940
The abundance fitness of the first is lower: -0.081 ± 0.053 for the first, 0.087 ± 0.05 for the second.

First: E3 ubiquitin-protein ligase RSP5 D361Y, P39940
Second: E3 ubiquitin-protein ligase RSP5 G329D, P39940
The abundance fitness of the first is lower: -0.594 ± 0.062 for the first, 0.149 ± 0.066 for the second.
